Patent US20100322941A1 (published 2010)
Values belong to the binder of their own block, whether it stands above or below them.

Tests used:
[1] = molecular target: T1, recombinant human IP-10 (human, UniProt P02778 22-98); experiment: cell-based or functional assay
T1 construct: mature; also called hIP-10; rhIP-10
T1 sequence (looked up): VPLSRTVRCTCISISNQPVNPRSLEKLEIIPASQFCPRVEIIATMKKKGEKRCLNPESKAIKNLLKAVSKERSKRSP

[2] = molecular target: T1, recombinant human IP-10; experiment: SPR (Biacore 2000); the text's value differs from Table 8 (9.2 × 10^-9 M)
Description: 200RU (response unit) of a goat anti-human polyclonal IgG (ahIgG; Biacore AB, Uppsala, Sweden) were immobilized by EDC/NHS chemistry on a C1 Biacore chip. […] The surface was regenerated after each cycle by injection of 10 mM glycine pH=1.5 at 30 μL/min, for 30 s followed by 1 min. of stabilization time in HBS-EP buffer.
Binding was measured by passing either hIP-10 (Peprotech, Rocky Hill N.J.) or a NusA-hIP-10 fusion protein at the following concentrations: 34.7 nM, 11.6 nM, 3.85 nM, 1.28 nM, 0.428 nM, 0.142 nM and OnM. All solutions were diluted in HBS-EP buffer (Biacore AB, Uppsala, Sweden). Injection was performed at 50 μl/min for 3 min. followed by 12 min. of dissociation time and the temperature was set at 25° C. […] Very similar values were obtained using rhIP-10 or the NusA-hIP-10 fusion, but better response signals were obtained with the fusion protein due to its larger size that induces a better response on the Biacore.

Calcium flux IC50 (nM); hCXCR3-expressing L1.2 cells, 10 nM hIP-10 [1]: 36 nM | Chemotaxis IC50 (nM); hCXCR3-expressing L1.2 cells, 2 nM hIP-10 [1]: 18 nM
B1: CC21R3P1_F1 (scFv format) (scFv, part only; not given: linker, domain order, vector tags, V domains shown, not shown: another chain or arm of the molecule; small tags and cut ends)
VH: QVQLVESGGGVVQPGRSHTLSCAASGFAFKNSGIHWVRQAPGKGLEWVAVISYDGSNKFYADSVKGRFTISRDNSQNTVYLQMTDLRPDDTAVYYCARDGSESEYLDYWGKGTLVTVSS
VL: NFMLTQPHSVSESPGKTVTISCTGSGGSIDRNYVQWYQQRPGSAPITVIYEDNQRPSGVPDRFSGSIDSSSNSASLTISGLRTDDEADYYCQSYDSINLWVFGGGTKVTVL

Calcium flux IC50 (nM); hCXCR3-expressing L1.2 cells, 10 nM hIP-10 [1]: 14 nM | Chemotaxis IC50 (nM); hCXCR3-expressing L1.2 cells, 1 nM hIP-10 [1]: 1.8 nM
B2: CF1A11R3P3_F3 (scFv format) (scFv, part only; not given: linker, domain order, vector tags, V domains shown, not shown: another chain or arm of the molecule; small tags and cut ends)
VH: QVQLVESGGGVVQPGRSLRLSCAASGFTFSNSGIHWVRQAPGKGLEWVAVISYDGSNKFYADSVKGRFTISRDNSKNTLYLQMNSLRAEDTAVYYCAKLRDNGEYLDYWGQGTLVTVSS
VL: B1 VL

Kd [2]: 0.0902 µM
B3: CC21R3P1_F1 (IgG1 format) (antibody, V domains shown)
VH: B1 VH
VL: B1 VL

Calcium flux IC50 (nM); hCXCR3-expressing L1.2 cells, 10 nM hIP-10 [1]: 89 nM | Chemotaxis IC50 (nM); hCXCR3-expressing L1.2 cells, 1 nM hIP-10 [1]: 90 nM
B4: CC21R3P5_C5 (scFv format) (scFv, part only; not given: linker and tags, part only)
scFv, part: QVQLVQSGGGVVQPGRSLRLSCAASGFTFSTYGMHWVRQAPGKGLEWVAVISYDGGTKYYADSVKGRFTISRDNSMKTLYLQMNSLRTEDTAVYYCAKDLGDLPPGLDYWGRGTMVTVSSCHEMICALLYSYNTHESIZEDSYELTQPPSVSVALGQTATITCGGSSIESKSVHWYQEKPGQAPVLVIYKDSNRPSVIPERFSGSNSGNTATLTIGRAQAGDEADYYCQVWDSSTGVVFGGGTKLTVL
